The text below walks through data of patent US20200040057A1 (IMMATICS BIOTECHNOLOGIES, published 2020).

In the test the target is HLA-B*07 (human). Description: UV peptide exchange ELISA; +++ = yield >50.

B1: RPQGAVGGL (peptide)
peptide: RPQGAVGGL
With B1, the peptide exchange yield lay in the range of 50 to 75%.

B2: APRSPGQVTPRGL (peptide)
peptide: APRSPGQVTPRGL
Turning to B2, the peptide exchange yield was 50 to 75%.

B3: MAYDRFIAI (peptide)
peptide: MAYDRFIAI
Molecule B3 yielded a peptide exchange yield of 50 to 75%.

B4: VPPQNPRPSL (peptide)
peptide: VPPQNPRPSL
In turn, B4 came in with a peptide exchange yield of 50 to 75%.

B5: TPELKSSIL (peptide)
peptide: TPELKSSIL
B5 came in with a peptide exchange yield of 50 to 75%.

B6: SPSTSRTPL (peptide)
peptide: SPSTSRTPL
In turn, B6 came in with a peptide exchange yield of 50 to 75%.

B7: YPLQGPGLLSV (peptide)
peptide: YPLQGPGLLSV
Regarding B7, the peptide exchange yield is 50 to 75%.

B8: RPGTGQGGL (peptide)
peptide: RPGTGQGGL
B8 gave a peptide exchange yield of 50 to 75%.

B9: APRPGNWIL (peptide)
peptide: APRPGNWIL
Take B9: the peptide exchange yield lay in the range of 50 to 75%.

B10: LPNTGRIGQL (peptide)
peptide: LPNTGRIGQL
B10 came in with a peptide exchange yield of 50 to 75%.

B11: RPFLRLPSL (peptide)
peptide: RPFLRLPSL
Take B11: the peptide exchange yield lay in the range of 50 to 75%.

B12: HPYSDLADVF (peptide)
peptide: HPYSDLADVF
B12 came in with a peptide exchange yield of 50 to 75%.

B13: IPAPQGAVL (peptide)
peptide: IPAPQGAVL
B13 returned a peptide exchange yield of 50 to 75%.

B14: APGGSSRSSL (peptide)
peptide: APGGSSRSSL
B14 yielded a peptide exchange yield of 50 to 75%.

B15: SPTPVFTTL (peptide)
peptide: SPTPVFTTL
Consider B15, for which the peptide exchange yield was 50 to 75%.

B16: QPQQPGFFL (peptide)
peptide: QPQQPGFFL
The molecule B16 displayed a peptide exchange yield of 50 to 75%.

B17: SPYADIIPSA (peptide)
peptide: SPYADIIPSA
Regarding B17, the peptide exchange yield was 50 to 75%.

B18: VLPRAGGAFLM (peptide)
peptide: VLPRAGGAFLM
As to B18, the peptide exchange yield lay in the range of 50 to 75%.

B19: LPMTHRLQL (peptide)
peptide: LPMTHRLQL
Take B19: the peptide exchange yield lay in the range of 50 to 75%.

B20: QPANFIVLL (peptide)
peptide: QPANFIVLL
B20 came in with a peptide exchange yield of 50 to 75%.

B21: APEPRAALL (peptide)
peptide: APEPRAALL
Take B21: the peptide exchange yield fell in the range of 50 to 75%.

B22: FPNAGPRHLL (peptide)
peptide: FPNAGPRHLL
For B22, the peptide exchange yield fell in the range of 50 to 75%.

B23: GPQRTTSV (peptide)
peptide: GPQRTTSV
In turn, B23 displayed a peptide exchange yield of 50 to 75%.

B24: AVHEIGHSL (peptide)
peptide: AVHEIGHSL
The molecule B24 registered a peptide exchange yield of 50 to 75%.

B25: APSMLRKNQL (peptide)
peptide: APSMLRKNQL
Molecule B25 came in with a peptide exchange yield of 50 to 75%.

B26: SPVGVGQRL (peptide)
peptide: SPVGVGQRL
B26 came in with a peptide exchange yield of 50 to 75%.

B27: LHAMNSLSAM (peptide)
peptide: LHAMNSLSAM
In the case of B27, the peptide exchange yield was in the range of 50 to 75%.

B28: LPYEKVSRL (peptide)
peptide: LPYEKVSRL
As for B28, the peptide exchange yield lay within 50 to 75%.

B29: RPRPPKVL (peptide)
peptide: RPRPPKVL
As to B29, the peptide exchange yield lay in the range of 50 to 75%.

B30: FPRKPYEGRV (peptide)
peptide: FPRKPYEGRV
On to B30, for which the peptide exchange yield lay within 50 to 75%.

B31: RPFPLALL (peptide)
peptide: RPFPLALL
On to B31, for which the peptide exchange yield is 50 to 75%.

B32: RAVPVGSGL (peptide)
peptide: RAVPVGSGL
For the molecule B32, the peptide exchange yield lay within 50 to 75%.

B33: SAAPPGASL (peptide)
peptide: SAAPPGASL
In the case of B33, the peptide exchange yield lay within 50 to 75%.

B34: HPAPPVTSA (peptide)
peptide: HPAPPVTSA
The molecule B34 yielded a peptide exchange yield of 50 to 75%.

B35: SVLPRALSL (peptide)
peptide: SVLPRALSL
With B35, the peptide exchange yield fell in the range of 50 to 75%.

B36: KPRATWTL (peptide)
peptide: KPRATWTL
As for B36, the peptide exchange yield lay within 50 to 75%.

B37: TAYPSLRLL (peptide)
peptide: TAYPSLRLL
B37 returned a peptide exchange yield of 50 to 75%.

B38: LIAARGSLVL (peptide)
peptide: LIAARGSLVL
B38 registered a peptide exchange yield of 50 to 75%.

B39: RVMLPKAAL (peptide)
peptide: RVMLPKAAL
As for B39, the peptide exchange yield was in the range of 50 to 75%.

B40: HPRAPGEQQRL (peptide)
peptide: HPRAPGEQQRL
On to B40, for which the peptide exchange yield lay within 50 to 75%.

B41: RPTAASQSRAL (peptide)
peptide: RPTAASQSRAL
In turn, B41 displayed a peptide exchange yield of 50 to 75%.

B42: KPIRTGISPLAL (peptide)
peptide: KPIRTGISPLAL
B42 yielded a peptide exchange yield of 50 to 75%.

B43: AASPVGSAL (peptide)
peptide: AASPVGSAL
Consider B43, for which the peptide exchange yield was 50 to 75%.

B44: NPREPEKSL (peptide)
peptide: NPREPEKSL
B44 registered a peptide exchange yield of 50 to 75%.

B45: KPYDGIPAS (peptide)
peptide: KPYDGIPAS
For the molecule B45, the peptide exchange yield is 50 to 75%.

B46: KPMLPPAAF (peptide)
peptide: KPMLPPAAF
B46 had a peptide exchange yield of 50 to 75%.

B47: WPRLPGAGL (peptide)
peptide: WPRLPGAGL
Take B47: the peptide exchange yield is 50 to 75%.

B48: IPIDQILNSF (peptide)
peptide: IPIDQILNSF
Molecule B48 came in with a peptide exchange yield of 50 to 75%.

B49: SSPRGTTSTL (peptide)
peptide: SSPRGTTSTL
In turn, B49 gave a peptide exchange yield of 50 to 75%.

B50: SPRSGVLL (peptide)
peptide: SPRSGVLL
On to B50, for which the peptide exchange yield is 50 to 75%.

B51: SPIIHSIL (peptide)
peptide: SPIIHSIL
On to B51, for which the peptide exchange yield lay within 50 to 75%.

B52: RPRPPKVLGL (peptide)
peptide: RPRPPKVLGL
On to B52, for which the peptide exchange yield is 50 to 75%.

B53: SPSKSLEM (peptide)
peptide: SPSKSLEM
B53 showed a peptide exchange yield of 50 to 75%.

B54: SPFSKRIKL (peptide)
peptide: SPFSKRIKL
The molecule B54 came in with a peptide exchange yield of 50 to 75%.

B55: RITWKGLLL (peptide)
peptide: RITWKGLLL
In the case of B55, the peptide exchange yield is 50 to 75%.

B56: SPRGTTSTL (peptide)
peptide: SPRGTTSTL
Molecule B56 gave a peptide exchange yield of 50 to 75%.

B57: LPLHRGDLVI (peptide)
peptide: LPLHRGDLVI
Regarding B57, the peptide exchange yield was in the range of 50 to 75%.

B58: QPENSLEGISL (peptide)
peptide: QPENSLEGISL
The molecule B58 returned a peptide exchange yield of 50 to 75%.

B59: IPETASVVAI (peptide)
peptide: IPETASVVAI
For B59, the peptide exchange yield fell in the range of 50 to 75%.

B60: MPATPSLKV (peptide)
peptide: MPATPSLKV
Molecule B60 returned a peptide exchange yield of 50 to 75%.

B61: FAFYGGKSL (peptide)
peptide: FAFYGGKSL
In turn, B61 came in with a peptide exchange yield of 50 to 75%.

B62: SPDSAILKL (peptide)
peptide: SPDSAILKL
B62 showed a peptide exchange yield of 50 to 75%.

B63: FPAFLEAM (peptide)
peptide: FPAFLEAM
In turn, B63 gave a peptide exchange yield of 50 to 75%.

B64: APADEPRTVL (peptide)
peptide: APADEPRTVL
As to B64, the peptide exchange yield lay in the range of 50 to 75%.

B65: RVLLRWISL (peptide)
peptide: RVLLRWISL
On to B65, for which the peptide exchange yield fell in the range of 50 to 75%.

B66: SPSLQSSRESL (peptide)
peptide: SPSLQSSRESL
Molecule B66 yielded a peptide exchange yield of 50 to 75%.

B67: RPHQKGWLSI (peptide)
peptide: RPHQKGWLSI
For the molecule B67, the peptide exchange yield fell in the range of 50 to 75%.

B68: MPVPGILL (peptide)
peptide: MPVPGILL
Consider B68, for which the peptide exchange yield lay within 50 to 75%.
